For assay [1], the target named is T1, sTNFR2, monomeric extracellular domains of TNFR2 obtained from etanercept (Homo sapiens, UniProt P20333).
T1 construct: extracellular domains of TNFR2 as in etanercept; also called TNFR2 ECD; source: from etanercept (Pfizer): IdeS digestion, reduction with 2-mercaptoethylamine, purified (Protein A flow-through, SEC); not shown: Fc (human IgG1, of etanercept), C-terminal, cleaved
Kind of assay: SPR; antibody captured (~400 RU) on anti-human IgG Fc on a CM5 chip, sTNFR2 as analyte in twofold dilution series; PBS with 0.005% Tween 20, pH 7.4, 25 °C; 1:1 global kinetics fit. Conditions: both partners purified. Background: In SPR one partner is held on a chip, and binding of the other changes the refractive index at the surface.

Assay [2] concerns the target T2, tumor necrosis factor-alpha (TNFα) (UniProt P01375).
T2 construct: tumor necrosis factor-alpha; source: bought: Peprotech #AF-200-01A (named for the reporter assay)
In words: SPR; TNFα immobilised on a CM5 chip by amine coupling (140 RU); antibodies 10 nM or 100 nM flowed; HBS-EP+, 25 °C. To be noted: both partners purified.

T2 sequence (P01375 77-233): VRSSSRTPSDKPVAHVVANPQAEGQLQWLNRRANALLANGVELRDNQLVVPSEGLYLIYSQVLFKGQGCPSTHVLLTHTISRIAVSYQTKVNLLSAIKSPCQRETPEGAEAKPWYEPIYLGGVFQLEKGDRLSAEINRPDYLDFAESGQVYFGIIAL

B1: TR109 chimeric conventional IgG (antibody, V domains shown)
VH: QVQLKESGPGLVAPSQSLSITCTVSGFSLTVYGVNWVRQPPGKGLEWLGMIWGDGSTAYNSALKSRLTITKDNSKTQVFLKMNSLQTDDTARYYCARDGRRYALDYWGQGTSVTVSS
VL: DIVLTQSPTSLAVSLGQRATISCRASESVDSYGDSFLHWYQQKPGQPPILLIYRASNLDSGIPARFSGSGSRTDFTLTINPVEADDVATYYCQQSNEDPYTFGGGTKLEIK
Usually Kd stands for a measure of binding affinity in units of concentration. A low value points to tighter binding. In assay [1], B1 had a Kd of 5.6 nM.

B2: TR109 cIgG (chimeric, human IgG1/kappa) (antibody, V domains shown)
VH: QVQLKESGPGLVAPSQSLSITCTVSGFSLTVYGVNWVRQPPGKGLEWLGMIWGDGSTAYNSALKSRLTITKDNSKTQVFLKMNSLQTDDTARYYCARDGRRYALDYWGQGTSVTVSS
VL: DIVLTQSPTSLAVSLGQRATISCRASESVDSYGDSFLHWYQQKPGQPPILLIYRASNLDSGIPARFSGSGSRTDFTLTINPVEADDVATYYCQQSNEDPYTFGGGTKLEIK
As for B2, in assay [2], the binding result was “no binding (tested: 10 nM or 100 nM)”.

B3: TR96 chimeric conventional IgG (antibody, V domains shown)
VH: EVQLQQSGAELVKPGASVKLSCTPSGFNIKDTYMHWVKQRPEQGLEWIGRIDPANGYTEYDPKFQDKATITADTSSNTAYLQLSSLTSEDTAVYYCADTQLYYWGQGTTLTVSS
VL: QIVLTQSPAIMSASLGERVTMTCTASSSVSSTYLHWYQQKPGSSPKLWIYSTSNLASGVPARFSGSGSGTSYSLTISNMEAEDAATYYCHQYHRSPLTFGAGTKLELK
In general, koff refers to the first-order rate constant of dissociation. Read a low koff as a long-lived complex. By kon is commonly meant the second-order rate constant of association. Read a low kon as slow association. Consider B3, for which, in assay [1], the Kd turned out to be 0.42 nM, the koff turned out to be 0.00024 s⁻¹ and the kon amounted to 580000 M⁻¹ s⁻¹.

B4: TR94 cIgG (chimeric, human IgG1/kappa) (antibody, V domains shown)
VH: QVQLQQSGAELARPGTSVKLSCKASGYTFTSYWMQWVKQTPGQGLEWIGAIYPGDGDSRYIQKFKGKATLTADKSSSTAYMQLSSLASEDSAVYYCARDGNYYAMDYWGQGTSVTVSS
VL: QIVLTQSPAIMSASLGERVTITCTASSSVSSTYLHWYQQKPGSSPKLWIYSTSNLASGVPARFSGSGSGTSYSLTISSMEAEDAATYYCHQYHRSPPTFGAGTKLELK
In the case of B4, the binding result in assay [2] is “no binding (tested: 10 nM or 100 nM)”.

B5: TR96 cIgG (chimeric, human IgG1/kappa) (antibody, V domains shown)
VH: EVQLQQSGAELVKPGASVKLSCTPSGFNIKDTYMHWVKQRPEQGLEWIGRIDPANGYTEYDPKFQDKATITADTSSNTAYLQLSSLTSEDTAVYYCADTQLYYWGQGTTLTVSS
VL: QIVLTQSPAIMSASLGERVTMTCTASSSVSSTYLHWYQQKPGSSPKLWIYSTSNLASGVPARFSGSGSGTSYSLTISNMEAEDAATYYCHQYHRSPLTFGAGTKLELK
As for B5, in assay [2], the binding result was “no binding (tested: 10 nM or 100 nM)”.

B6: TR45 chimeric conventional IgG (antibody, V domains shown)
VH: EVQLQQSGPEMEKPGASVKISCKASGYSFTGYNMNWVKQSIGKSLEWIGKIDPYYGGTDYNLRFKDKATLTVDKSSSTAYMHLSRLTSEDSAVYYCAREPNYGSNDWYFDVWGAGTTVTVSS
VL: DIQVTQTTSSLSASLGDRVTISCRASQDIDNYLNWYQQRPDGTVKLLIYYTSILHSGVPSRFSGSGSRTDFSLTISSLEEEDFATYFCQQGNTLPWTFGGGTKLEFK
In assay [1], B6 returned an equilibrium dissociation constant (Kd) of 19 nM.

B7: TR45 cIgG (chimeric, human IgG1/kappa) (antibody, V domains shown)
VH: EVQLQQSGPEMEKPGASVKISCKASGYSFTGYNMNWVKQSIGKSLEWIGKIDPYYGGTDYNLRFKDKATLTVDKSSSTAYMHLSRLTSEDSAVYYCAREPNYGSNDWYFDVWGAGTTVTVSS
VL: DIQVTQTTSSLSASLGDRVTISCRASQDIDNYLNWYQQRPDGTVKLLIYYTSILHSGVPSRFSGSGSRTDFSLTISSLEEEDFATYFCQQGNTLPWTFGGGTKLEFK
On to B7, for which the binding result in assay [2] is given as “no binding (tested: 10 nM or 100 nM)”.

B8: TR92 chimeric conventional IgG (antibody, V domains shown)
VH: KVQLQQSGAELVKPGASVKLSCKASGYTFTESIIHWVKQRSGQGLEWIGWFYPGSDNINYNEKFKDKATLTADKSSSTVYMELTRLTSEDSAVYFCASHEGPYVYFDYWGQGTTLTVSS
VL: DIVMTQSHKFMSTSVGDRVSITCKASQDVSTAVAWYQQKPGQSPKLLIYWTSTRHTGVPDRFTGSGSGTDYTLTISSVQAEDLALYYCQHHYSTPYTFGGGTKLEIQ
In the case of B8, binding in assay [1] was characterised by a dissociation constant (Kd) of 4 nM.

B9: TR92 cIgG (chimeric, human IgG1/kappa) (antibody, V domains shown)
VH: KVQLQQSGAELVKPGASVKLSCKASGYTFTESIIHWVKQRSGQGLEWIGWFYPGSDNINYNEKFKDKATLTADKSSSTVYMELTRLTSEDSAVYFCASHEGPYVYFDYWGQGTTLTVSS
VL: DIVMTQSHKFMSTSVGDRVSITCKASQDVSTAVAWYQQKPGQSPKLLIYWTSTRHTGVPDRFTGSGSGTDYTLTISSVQAEDLALYYCQHHYSTPYTFGGGTKLEIQ
For the molecule B9, the binding result in assay [2] is “no binding (tested: 10 nM or 100 nM)”.

For the origin of these results see article PMC10533564 (Communications Biology, 2023).
